Results taken from US20200158726A1 (NORDIC BIOSCIENCE A S, published 2020).
No end group written: not given here.

What was measured:
[1] = molecular target: T1, selection peptide SFSGFLVAPM-COOH (human); assay: competitive peptide assay (preliminary assays); the peptide also blocked the Western blot bands
T1 construct: Synthetic peptide; also called calibrator peptide
T1 peptide: SFSGFLVAPM-OH

[2] = molecular target: T2, collagen type X alpha 1 (human, UniProt Q03692 19-680); assay: Western blot of U2-OS cell lysate, antibody at 1 ug/ml
T2 construct: Endogenous protein in U2-OS lysates, seen as bands of about 59 kDa (monomer), 76 kDa and 120 kDa (dimer); also called type X collagen; Col10
T2 sequence (Q03692 19-680): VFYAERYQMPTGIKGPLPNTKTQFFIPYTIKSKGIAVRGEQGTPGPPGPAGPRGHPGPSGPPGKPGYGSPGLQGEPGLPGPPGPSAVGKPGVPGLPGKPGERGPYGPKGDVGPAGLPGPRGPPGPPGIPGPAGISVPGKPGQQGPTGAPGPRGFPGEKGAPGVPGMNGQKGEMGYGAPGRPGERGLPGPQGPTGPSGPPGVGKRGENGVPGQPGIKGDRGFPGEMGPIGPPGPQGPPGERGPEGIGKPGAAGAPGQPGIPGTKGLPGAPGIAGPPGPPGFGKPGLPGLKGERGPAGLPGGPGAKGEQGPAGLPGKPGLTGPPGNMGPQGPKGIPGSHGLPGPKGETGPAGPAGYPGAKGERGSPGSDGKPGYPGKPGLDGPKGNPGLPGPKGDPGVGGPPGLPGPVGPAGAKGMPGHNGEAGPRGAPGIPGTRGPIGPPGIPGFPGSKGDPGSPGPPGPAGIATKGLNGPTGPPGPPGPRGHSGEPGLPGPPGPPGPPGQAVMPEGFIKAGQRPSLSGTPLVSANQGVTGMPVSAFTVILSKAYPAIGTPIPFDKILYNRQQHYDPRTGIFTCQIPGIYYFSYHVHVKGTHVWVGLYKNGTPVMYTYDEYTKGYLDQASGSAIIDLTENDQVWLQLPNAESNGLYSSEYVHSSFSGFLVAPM
Protocol: Human osteosarcoma cell lines (U2-OS; collagen X producing cell line) were purchased from ATCC (USA) and cultivated in DMEM medium containing 10% FBS, 2 mM L-Glutamine, 100 units/ml penicillin and 100 ug/ml streptomycin. Cells were grown in T25 flasks in a 37° C. incubator at 5% CO2, changing the medium every two or three days. When the cells reached 90% confluency the cell lysates were prepared using RIPA lysis buffer with following procedure: the cell media was removed and the cells washed twice with PBS, followed by adding cold RIPA lysis buffer (25 mM Tris-HCl pH7, 6; 150 mM NaCl, 1% Sodium deoxycholate acid). An EDTA free cocktail tablet was added to the flask then RIPA buffer was distributed to cover the whole surface of flask and incubated on ice for 10 minutes. The cells were scraped and centrifuged at 10,000 RPM at 4° C. for 10 minutes and the supernatants stored at −20° C. until use.
Protein bands were blotted onto a nitrocellulose membrane using the Invitrogen i-Blot gel transfer system according to manufacturer's instruction. The membrane was blocked in blocking buffer (5% skimmed milk in Tris-buffered saline with Tween (TBST)) overnight at 4° C. The monoclonal antibody, NB509-11G8 and commercial collagen type X antibody X53 (for comparison purposes) were applied in a concentration of 1 μg/ml in TBST with 5% skim milk powder and shaken overnight at 4° C. […]

[3] = molecular target: T3, truncated peptide SFSGFLVA; assay: competitive peptide assay against the biotinylated screening peptide
T3 construct: Synthetic peptide; the selection peptide without its two C-terminal residues PM
T3 peptide: SFSGFLVA

[4] = molecular target: T4, deselection peptide DMDYLPRVPNQ; assay: as above
T4 construct: Synthetic peptide
T4 peptide: DMDYLPRVPNQ

- binding result [1]: binds
- binding result [2]: binds
- binding result [3]: no binding
- binding result [4]: no binding
B1: monoclonal antibody NB509-11G8 (antibody, mouse IgG1, kappa, V domains shown)
VH: EVQLQQSGAELVKPGASVKLSCTASGFNIKDTHMHWVKQRPEQGLEWIGRIDPANVNTKYDPRFQGRATITADTSSNTAYLQLSRLTSEDTAVYYCATSGSSPWGQGTTLTVSS
VL: DVVMTQTPLSLPVSLGDQASISCRSSQSLVHSNGYTYSNWYLQKPGQSPKLLIYRVSNRFSGVPDRFSGSGSGTDFTLKISRVEADDLGVYFCSQSTHVPWTFGGGTKLEIKR
notes: Mouse IgG1, kappa, from a hybridoma
